B1: 17F06 (antibody, mouse IgG2a, V domains shown)
VH: EVKLVESGGGLVKPGASLKLSCAASGFIFSSYGMSWVRQTSDKRLEWVASISSGGGTTYYLDTVKGRFTISRENAKDTLYLQMSGLKSEDTALYYCTRGQWLLKFAYWGQGTLVTVSA
VL: QLVLTQSSSASFSLGASAKLTCTLSSQHTTYTIEWYQQLPLKPPKYVMELKKDGSHSTGVGIPDRFSGSSSGADRYLTISNIQPEDEAIYICGVGETIEDQFVYVFGGGTKVTVLG
notes: Murine hybridoma monoclonal, IgG2a/lambda (IGLC2); also called antibody 17F06
B2: RON6 (antibody, V domains shown)
VH: QVQLVQSGPEVKKSGSSVKVSCKASGGTFSSDAITWVRQAPGQGLEWMGGIIPILGMANYAQKFQGRVTITADKSTNTAYMELSSLRSEDTAVYFCARVADYYGLGTYYWYFDLWGRGTLVTVSS
VL: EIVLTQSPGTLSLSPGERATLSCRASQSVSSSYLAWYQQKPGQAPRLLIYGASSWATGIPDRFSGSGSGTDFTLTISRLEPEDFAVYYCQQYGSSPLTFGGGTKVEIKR
B3: 18H09 (antibody, mouse IgG1, V domains shown)
VH: EVQLQESGPSLVKPSQTLSLTCYVTGDSITSDYWNWIRKFPGNKLEYMGYISYSGSTYYNPSLKSRISITRDTSKNQFYLRLNSVTTEDTATYYCARTHILTIAYWGQGTLVTVSA
VL: QAVVTQESALTTSPGETVTLTCRSSAGAVTTSNFANWVQEKPDHLFTGLIGDTNIRAPGVPARFSGSLIGDKAALTITGAQTEDEAIYFCALWYSNHYWVFGGGTKLTVLG
notes: Murine hybridoma monoclonal, IgG1/lambda (IGLC1); also called antibody 18H09

Assays:
[1] = molecular target: T1, human wild-type RON (cell surface) (human, UniProt Q04912 25-1400); test: cell-based or functional assay
[2] = molecular target: T2, recombinant human RON SEMA and PSI domains (human, UniProt Q04912 25-571); test: SPR, Ab captured on anti-mouse IgG, 25 C, AVG
T2 construct: domain: SEMA+PSI; Commercial protein (R&D Systems); also called rhRON SEMA+PSI; hRON SEMA+PSI
Experimental: (§1) The binding affinities and kinetics of binding of antibodies 07F01, 29B06, 17F06, 18H09, and 12B11 to recombinant human RON-ECD/mFc fusion protein (rhRON ECD/mFc) and recombinant human RON SEMA and PSI domains (rhRON SEMA+PSI) (R&D Systems, Inc., Minneapolis, Minn.) were measured by surface plasmon resonance, using a Biacore T100 instrument (GE Healthcare, Piscataway, N.J.).
(§2) Rabbit anti-mouse IgGs (GE Healthcare) were immobilized on carboxymethylated dextran CM4 sensor chips (GE Healthcare) by amine coupling, according to a standard protocol. Analyses were performed at 25° C. and 37° C., using PBS containing 0.05% surfactant P20 as running buffer. The antibodies were captured in individual flow cells at a flow rate of 10 μl/min. Injection time was varied for each antibody to yield an Rmax between 30 and 60 RU. 250 μg/mL mouse Fc were injected at 30 μl/min for 120 seconds to block non-specific binding of antibodies to Fc portion of the protein when needed. Buffer, rhRon ECD/mFc or rhRON SEMA+PSI diluted in running buffer was injected sequentially over a reference surface (no antibody captured) and the active surface (antibody to be tested) for 300 seconds at 60 μl/minute. The dissociation phase was monitored for up to 3600 seconds. The surface was then regenerated with two 60-second injections of 10 mM Glycine-HCl, pH 1.7, at a flow rate of 60 μl/min. The rhRON ECD/mFc or rhRON SEMA+PSI concentration range tested was 0.625 nM to 20 nM.

[3] = molecular target: T3, delta 160 RON variant (cell surface) (human, UniProt Q04912 25-1400); test: FACS, 10 ug/ml antibody, HT-29 cells, 4 C
T3 construct: whole, on cells; Splice variant; also called delta 160 variant
Experimental: (§3) Binding to cell surface wild-type RON and delta 160 RON at 4° C. was determined for antibodies 07F01, 12B11, 17F06, 18H09, and 29B06, using FACS. Cells expressing wild-type RON (PC3), and cells expressing delta 160 RON (HT-29), were harvested using cell dissociation buffer (Invitrogen), washed twice with FACS buffer (0.5% BSA PBS) and treated with CytoQ Antibody diluent and FC receptor block (Innovex). Purified antibodies were diluted at a concentration of 10 μg/ml, in FACS buffer. Cells were incubated with 100 μl of antibody mix for one hour, washed with FACS buffer three times, and incubated for 45 minutes with goat anti-mouse PE conjugated antibody (Jackson Immunoresearch Laboratories). Cells were washed three times with FACS buffer, resuspended in 300 μl of FACS buffer and analyzed using a Beckman Coulter Cytomics FC 500 FACS instrument.

[4] = molecular target: T4, recombinant human RON-ECD/mFc fusion protein (human, UniProt Q04912 25-957); test: SPR, Ab captured on anti-mouse IgG, 37 C, AVG
T4 construct: extracellular domain; also called rhRON ECD/mFc; rhRon ECD/mFc; not shown: THXmFC: Thrombin/His tag/Factor Xa-AJ mouse IgG-Fc
Experimental: as §1, §2
(§4) Kinetic parameters were determined using the kinetic function of the BIAevaluation software (GE Healthcare) with double reference subtraction. Kinetic parameters for each antibody, kₐ (association rate constant), kd (dissociation rate constant) and KD (equilibrium dissociation constant) were determined.

[5] = molecular target: T4, recombinant human RON-ECD/mFc fusion …; test: SPR, Ab captured on anti-mouse IgG, 25 C, AVG; * Outside instrument limit of detection; 25 C, AVG of n=3
Experimental: as §1
(§5) Rabbit anti-mouse IgGs (GE Healthcare) were immobilized on carboxymethylated dextran CM4 sensor chips (GE Healthcare) by amine coupling, according to a standard protocol. Analyses were performed at 25° C. and 37° C., using PBS containing 0.05% surfactant P20 as running buffer. The antibodies were captured in individual flow cells at a flow rate of 10 μl/min. Injection time was varied for each antibody to yield an Rmax between 30 and 60 RU. 250 μg/mL mouse Fc were injected at 30 μl/min for 120 seconds to block non-specific binding of antibodies to Fc portion of the protein when needed. […] The dissociation phase was monitored for up to 3600 seconds. […]
as §4

[6] = molecular target: T1, human wild-type RON (cell surface); test: cell-based or functional assay; remark: listed apart in the source
[7] = molecular target: T4, recombinant human RON-ECD/mFc fusion …; test: SPR, Ab captured on anti-mouse IgG, 25 C, AVG
Experimental: as §1, §2, §4

[8] = molecular target: T4, recombinant human RON-ECD/mFc fusion …; test: SPR, Ab captured on anti-mouse IgG, 25 C, AVG; * Outside instrument limit of detection
Experimental: as §1, §5, §4

[9] = molecular target: T2, recombinant human RON SEMA and PSI …; test: ECL competition, MSP binding to coated hRON SEMA+PSI; competitor MSP; average
Experimental: (§6) The biochemical neutralization assay measures inhibition of MSP binding to hRON by antibodies in hybridoma supernatants, using electrochemiluminescence (ECL). MA2400 96-well high binding plates (Meso Scale Discovery) were coated with 25 μl of 0.42 μg/mL hRON SEMA+PSI (an N-terminal portion of the ECD of hRON; R&D Systems) in PBS for one hour at room temperature with agitation. The plates were washed four times with PBS+0.1% Tween-20 (PBST), and blocked with 150 μl of charcoal-stripped fetal bovine serum (FBS) (Gibco). The hybridoma supernatant were added and incubated for 45 minutes at room temperature. After incubation, 5 μl of MSP (3 μg/mL) in charcoal stripped FBS was added to each well, and incubated for 45 minutes. The plate was washed four times with PBST, and 25 μl of 1 μg/mL biotinylated anti-MSP antibody (R&D Systems) was added to the plates for one hour at room temperature with agitation. The plates were washed four times with PBST, and incubated with 25 μl of 1 μg/mL ST-streptavidin (Meso Scale Discovery) for one hour at room temperature with agitation. The plates were washed four times with PBST, and 150 μl read buffer (Meso Scale Discovery) was added to each well before the plates were analyzed on a Sector Imager 2400 (Meso Scale Discovery) instrument. Antibodies 07F01, 18H09 and 29B06 each blocked MSP binding to hRON SEMA+PSI in this neutralization assay.
(§7) Antibodies 07F01, 12B11, 17F06, 18H09, and 29B06 were tested for inhibition of MSP binding to hRON SEMA+PSI, as measured by electrochemiluminescence (ECL) assay as described in Example 3. The antibodies (concentration range: 0.006-10 μg/mL) were incubated for 45 minutes at room temperature.

[10] = molecular target: T1, human wild-type RON (cell surface); test: FACS, 10 ug/ml antibody, PC3 cells, 4 C
Experimental: as §3

[11] = molecular target: T2, recombinant human RON SEMA and PSI …; test: SPR, Ab captured on anti-mouse IgG, 37 C, AVG
Experimental: as §1, §2

[12] = molecular target: T2, recombinant human RON SEMA and PSI …; test: SPR, Ab captured on anti-human IgG Fc, 37 C
[13] = molecular target: T2, recombinant human RON SEMA and PSI …; test: SPR, Ab captured on anti-human IgG Fc, 25 C
[14] = molecular target: T2, recombinant human RON SEMA and PSI …; test: SPR, Ab captured on anti-human IgG Fc, 37 C; 37 C, n=1
[15] = molecular target: T4, recombinant human RON-ECD/mFc fusion …; test: SPR, Ab captured on anti-mouse IgG, 37 C, n=1
Experimental: as §1, §2, §4

[16] = molecular target: T2, recombinant human RON SEMA and PSI …; test: ECL competition assay: antibody titrated on plate-coated hRON SEMA+PSI; blocked ligand MSP, detected with biotinylated anti-MSP antibody
Experimental: as §6, §7

[17] = molecular target: T2, recombinant human RON SEMA and PSI …; test: ECL competition, MSP binding to coated hRON SEMA+PSI; competitor MSP; average n=3
Experimental: as §6, §7

| Binder | Mean IC50 (nM), inhibition of MSP-dependent ERK phosphorylation, T47D cells [1] | Kd [2] | koff [2] | kon [2] | HT-29 % cell surface binding [3] | Percent Inhibition of MSP-induced HPAF-II cell migration, antibody 2 ug/ml [6] | kon [7] | Maximum Neutralization (%) [9] | PC3 % cell surface binding [10] | Kd [11] | koff [11] | kon [11] | further results |
| --- | --- | --- | --- | --- | --- | --- | --- | --- | --- | --- | --- | --- | --- |
| B1 | 0.96 nM | 0.009 nM | 1.4e-06 s⁻¹ | 190000 M⁻¹ s⁻¹ | 99% | 70.7% | 170000 M⁻¹ s⁻¹ | 7.9% | 99.1% | 0.13 nM | 2.1e-05 s⁻¹ | 260000 M⁻¹ s⁻¹ | Kd [4]: 0.21 nM; koff [4]: 2.4e-05 s⁻¹; kon [4]: 140000 M⁻¹ s⁻¹; koff [5]: < 1e-05 s⁻¹; Kd [8]: < 0.0588 nM |
| B2 | – | – | – | – | – | – | – | – | – | – | – | – | Kd [12]: 1 nM; koff [12]: 0.19 s⁻¹; Kd [13]: 1.1 nM; koff [13]: 0.0026 s⁻¹; kon [13]: 2.3e+06 M⁻¹ s⁻¹; kon [14]: 1.9e+08 M⁻¹ s⁻¹ |
| B3 | 0.71 nM | 0.0086 nM | 3.8e-06 s⁻¹ | 440000 M⁻¹ s⁻¹ | 98.3% | 107% | 330000 M⁻¹ s⁻¹ | 86.9% | 99% | 0.22 nM | 0.00012 s⁻¹ | 580000 M⁻¹ s⁻¹ | Kd [15]: 0.4 nM; koff [15]: 0.0007 s⁻¹; kon [15]: 1.8e+06 M⁻¹ s⁻¹; IC50 (read off the curve) [16]: ~0.7 nM; IC50 [17]: 0.91 nM; Kd [7]: 0.22 nM; koff [7]: 5.7e-05 s⁻¹ |
